The numbers were not newly measured in paper PMC8305778, which cites them from elsewhere.

Usually Kd stands for the constant that tells how readily two partners part at equilibrium.

The series has as its target FcεRIα (Homo sapiens) (UniProt P12319). As to the kind of experiment: given as Ka.
Chain of UniProt P12319 (P12319 26-257): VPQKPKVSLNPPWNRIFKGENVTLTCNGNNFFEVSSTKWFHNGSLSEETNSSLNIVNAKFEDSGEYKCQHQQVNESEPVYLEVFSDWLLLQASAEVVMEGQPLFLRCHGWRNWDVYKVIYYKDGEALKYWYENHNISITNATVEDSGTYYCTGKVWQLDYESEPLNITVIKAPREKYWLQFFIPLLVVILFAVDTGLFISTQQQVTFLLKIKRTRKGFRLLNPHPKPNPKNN

As to IgE Fc (from UniProt P01854), the Kd is 0.1 nM.
